Data reported in patent US20230103885A1 (CRISPR THERAPEUTICS, published 2023).
Where a chain is given by its changes, count along the chain named.

B1: reference anti-FMC63-scFv antibody (rec_mab3) (antibody, V domains shown)
VH: EVKLVESGGGLVQPGGSLKLSCAASGFDFSRYWMSWVRQAPGKGLEWIGEINLDSSTINYTPSLKDKFIISRDNAKNTLYLQMSKVRSEDTALYYCARRYDAMDYWGQGTSVTVSS
VL: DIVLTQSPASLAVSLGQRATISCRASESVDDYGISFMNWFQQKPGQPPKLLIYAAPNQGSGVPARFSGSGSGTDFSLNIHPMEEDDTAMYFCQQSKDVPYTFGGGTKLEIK
notes: also called control anti-FMC63-scFv antibody
B2: 29E4B5-1 (Recombinant) (antibody, V domains shown)
VH: B1 VH with V5L, E6Q, F27I, Q39R, I58K, T61A, R99N, D101V, A102G
VL: DIVLTQSPASLAVSLGQRATISCRASKSVSSSDYTYMHWYQQKPGQPPKLLIYLASNLESGVPARFSGSGSGTDFTLNIHPVEEEDAATYYCQHSRELPPTFGGGTKLEIK
notes: also called recombinant 29E4B5 antibody

Assays:
[1] = biological target: T1, anti-CD19 CAR comprising the anti-CD19 scFv of SEQ ID NO:1; assay: flow cytometry on anti-CD19 CAR T cells, dilution 1:50
T1 construct: also called anti-CD19 chimeric antigen receptor; anti-CD19 CAR T cells
Excerpt: (§1) The 29E4B5 antibodies produced using the first or the second method were compared with a reference anti-FMC63-scFv antibody (rec_mab3) for the ability to bind to the anti-CD19 CAR T cells using flow cytometry. Both methods produced 29E4B5 antibodies with higher affinity to the anti-CD19 cells than rec_mab3, showing higher CAR positive percentage even at 1:6,400 dilutions (Table 9).

[2] = biological target: T1, anti-CD19 CAR comprising the anti-CD19 …; assay: flow cytometry on anti-CD19 CAR T cells, dilution 1:100
Excerpt: as §1

[3] = biological target: T1, anti-CD19 CAR comprising the anti-CD19 …; assay: flow cytometry on anti-CD19 CAR T cells, dilution 1:200
Excerpt: as §1

[4] = biological target: T1, anti-CD19 CAR comprising the anti-CD19 …; assay: flow cytometry on anti-CD19 CAR T cells, dilution 1:400
Excerpt: as §1

[5] = biological target: T1, anti-CD19 CAR comprising the anti-CD19 …; assay: flow cytometry on anti-CD19 CAR T cells, dilution 1:800
Excerpt: as §1

[6] = biological target: T1, anti-CD19 CAR comprising the anti-CD19 …; assay: flow cytometry on anti-CD19 CAR T cells, dilution 1:1600
Excerpt: as §1

[7] = biological target: T1, anti-CD19 CAR comprising the anti-CD19 …; assay: flow cytometry on anti-CD19 CAR T cells, dilution 1:3200
Excerpt: as §1

[8] = biological target: T1, anti-CD19 CAR comprising the anti-CD19 …; assay: flow cytometry on anti-CD19 CAR T cells, dilution 1:6400
Excerpt: as §1

Row | Binder | % CAR+ [1] | % CAR+ [2] | % CAR+ [3] | % CAR+ [4] | % CAR+ [5] | % CAR+ [6] | % CAR+ [7] | % CAR+ [8]
1 | B1 | 69.8% | 69.4% | 69.7% | 68.9% | 66.4% | 62.2% | 56.6% | 49.1%
2 | B2 | 69.6% | 69.3% | 68.8% | 69.1% | 68% | 65.9% | 62.5% | 58%
